The source of these data is the NTF2 design screens of Basanta et al. (2020).

This series is described as follows: protease stability score; higher = more stable; yeast display proteolysis, trypsin and chymotrypsin.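 Also: relative to predicted unfolded state with 0 unfolded-like and 1 meaning tenfold more protease.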
“TEEEELLTRLARQILRWLLTGDEDKHSRMLDPRDRSVIGDKESVGMEESVKNWRIWLEEMRLKHVQLRDVRIVDGVVHLDIHLFGHINGVHIDRESRMDVYIVNGRIHRIRIIEH” came in with a protease stability score of 1.3. In the case of “TEEEELRRRHAKELLDIWRTGDEHLMSHLADPHVRSIIDGVTVIGRDEWMKYLRILREHLGVKHIEHKDFNIQGDKVDVHGTMHVNGREIEVRSHFYVIDGRVRSNEIRFH”, the protease stability score is 0.256. With “TEEEELSELILELTERMIKTGDEKTLHRLMDPNARTVIGDKQDHGMRTIFNIMEELSERIKNARFSLKHIDVDGDKVKIWSTLNYDGRRWEVEIVARKIDGQWRLEEFRIR”, the protease stability score came out at 0.626. For “TEEEELSRKAAEILDEAQQTGDEDSIRELVDPNVKYEINGRIFVGWQEMLHAFRLELRHIRLREVHIKREKRIGNWMFIDSSMDGEVNGVRTERKSELVFLKFDGQWSLHSMRIE” the value was 1.56; for “TEEEEMYHKFAHEIARNLVTGDEDRLLELADPHVKSNVNGVELHGMEHFLEFWIHIVKEIRVHLRITHVTVINGVVIHDSEYEFIVNGKRHTTRVEIWWVVVDGRVHRVELRFK”, 1.17.

For “TEEEEQIKEMMEEMQHSYKTGDWRAISELLDPNVRMHIGDKEFHGREDLLRVFKHIRVKHLEIHHVRIIDGRAEVETTYTLVVDGVEHVHHTHIHSRKINGRWHIEEVYIH”, the protease stability score is 2.02.

As to “TEEEETARHMVHEFYEVIKTGDEETFRKLLDPNTKLHVNGKERHGREAIDEMYHRFKNVRIHVEHVDVVDGKIDLRENWIQGDKETIVRIEAHKVDGRWELRSVHIH”, the protease stability score came to 1.36. Take “TEEEEYLRKLTKDFIEAFLTGNWKEVARLLDPHTRLHVGEFEIHGREEMMKFMIELITRAGIKHQHIKSFETRIINGVVFLHVHMIVIVNGRNIERRLHVLFVKIDGRWTIEEVSEEHE”: the protease stability score came out at 1.46. Turning to “TEEEHFIKHATELWLRLLRTGDEHELSKMIDPHARVLIGDKNIHGRELASKFLSEFAHQIDHVEIRIKEVRTVDGKVDSDTRLDMHVDGQDIHHETRIISLKVDGKWLLQSFHFD”, the protease stability score turned out to be 0.456. To “TEEEHIIDDFDKRLLHAFVTGNEDLLAKLADPNVRLSVKIGDKTIERHGMESFRNWLRRFHEEIRIEDHKSDEVRFYNGVLEHHGTVLGHVNGVRTKVHVLEIYFIINGRMRNIWIEVR” belongs 1.54.

The sequence “TEEEHLLKKLAELVWEAVETGDEDFLKKLVDPHTRLHVDGREHHGREDFIEILTRMGVDHHRLEHFRVIDGKLFIDGHFNFNGRYFRVHIIFIIINGRAKEFWMRTE” displayed a protease stability score of 1.66. As to “TEEEHLMKEMLDLWVEALMTGDEKLLSELMDPNTRFHLRYGDFLQDRHGRHIINHIIRHWRFHVFKIEDTKVFNGRAIADTHLDVEIDGRRVRTRTKVDLVTINGKIERLDLEID”, the protease stability score is 0.902. “TEEEHLVEEMARRMLHSWLTGDEETLERLLDPNVRLEMIIDGVELRLHGREDMSRWLREWVERVDHVEIEIKRIRLIGEKSILDGQIHERQGDKERVIKTEIIVVVVDGRIHNSKIIIR” gave a protease stability score of 1.14.

For the sequence “TEEEHNVRIALSLYIETFKTGNEEVLRRRLDPNARLIFNGRDLHGRELIEDWIHEFHEKVPGLQIHRHEVKDWHVQGNKIDLDVHIDGVFDGKQTETRVILHILKVDGQWIMTVIEIR”, the protease stability score amounted to 1.35. Sequence “TEEEHWALHLLERILHHMLTGNESFIKHLFDPDTRWEVNGVENIGMERHSKLFLHMRIESIEIRSIHVRIVGEYIHIDVEIDIRGIVNGQRVEYHKKIHVIISKVNGRWHIKHYHESDE” gave a protease stability score of 1.22. With “TEEEKDSDDAFRHWVHSMRTGDEDRLRELIDPNARLLVNGRELHGMEWIITILSKEIKELRFKDVRLRDRDIVGNYAEVDVEIDMTIGEKEDSRDVVIFVLKVNGRWVIKEMHIR”, the protease stability score was 1.46.

Regarding “TEEEKELRHLYNRWLKDLQTGDEDSFRHLADPNVRLIVGDKDHHGWETSAQWMRELRERVDHLEIIVDSSHVINGRIESDTTIRLRVGDKTIEYRAEFEIDIVNGKMKRIVVREH”, the protease stability score came to 0.998.

In turn, “TEEEKEVEDLLRVVIHALQTGDEKKISELVDPNMRVKIGDKINHGWENAFEFHVRFIKELGVDHINIHPRHVRLIGDKVEVHLNLIIHVNGRDHETEIRLTAIKVNGRWHIESFEEQ” displayed a protease stability score of 1.91. Sequence “TEEEKFAEEMLRRFIENLITGDWRELKKLFDPDTKIVFNGREHHGMEWHIEFLREIRITHIEVRDMTLINGVAHANGHEIIIIGDKTLEMDTRINIVTINGRIHSIEIKQR” returned a protease stability score of 2.54. For “TEEEKHARLVKEHIVEILKTGDEREWMERADPNMYMTVGNKEQHGREQVMHLIERLLKELGIKHSHIKRLELQGDKVHLDVELNFNGVTRDSRLIFIVINGRFHEVIIIIH” the value was 0.947.

The sequence “TEEEKHLRELTDRVLHEEETGDWRTLKELADPNVRFDYRYGDYFFHSHGREDVVKHLRHVFQEMRIERVHVKDRKNYNGKVEIHTEIHGVYNGVRFRTEVTIKIVIIDGRIHSHIWEIN” had a protease stability score of 0.305. As for “TEEEKIFKKLMHLILNAFLTGDEELLHEYVDPHARVRVGDKEFHGRENIIHALRMLFHHLGIDHIEIDKVDVFNGRMEVHGTFHFDGKNVESILRFDVYNGRLKKEEIEWR”, the protease stability score stood at 0.726. “TEEEKKSEEFLKKLTHAWRTGNEDTLTHMMDPHVRIDFNGQELIGMEHARRLISELRVEDLEIESITHQGNKVHIRGRDLVLFNGQQRTIDTIFILKKVDGRWIIESIEFR”: the protease stability score was 1.9. On to “TEEEKLARFAWHLRLHAEETGNEELIETLMDPNVKIDIDINGREIHMIGREEYIRWFNEYGFKHVEHVDEREMRVQGDYLDIRGRVIFHVNGQRIDTETQHHILVVDGRIKEIHDIYH”, for which the protease stability score is 1.69. For “TEEEKMAEKLWEILVKNAQTGDEDKVLKLIDPHTRFTFNGQTHHGRDTFHHLWKILGVDHVEPHSIEVQGDKAHIDSRLYFNGQVRTYTIIVEKINGRWIVTTIDLH” the value was 1; for “TEEEKSLKEVLERYIKAIRTGDWEILRHLADPRTRMDINGRDIHGMEEITNELVEQIRRFDHIDFKFHHIEVYGDKADVHGTLVIKINGVEIRHSTKEFWYKVNGRWILHHSEIH”, 1.21; for “TEEENMNEENLDLAVHLMHTGDEEHLFDRLDPHARLEYGDKKYHGREIVEEVLLTLIRELGVDHIRVRRVKFVGDKLHIDSEFTVGDKVFRLHLVARKINGRWWLHSMRVQ”, 1.34. For “TEEEQLLKEFAELYLRNWWTGNEDKLLELADPHARSVVNGREIHGRENMYKLIRLWLERFKNIQIHYDDVKFQGNYVKLHGHMTVGDKTTHIIIHILVIDGVIKELSLEVN” the value was 1.56; for “TEEERDMKHLAELALESFLTGDFEIIKKLADPNVRSVIDGRDYHGMEEVHRYLEELLRMLGVKVSRIEDERLRIINGRVTVETDIRLNVDGKIFRVTLHFFFHKFNGRWRIEEIRIHIE”, 0.537; for “TEEERDSKLAFQLLFKTLETGDEREHREFIDPNMRLHVGNYEFIGWERAVHIMRRIDHVQRIEIEDTYTIGNKVTIDGTDYIEVGDFTERIRSRWIILKVDGKWFIHHVELR”, 0.679. As to “TEEERDTKIAVDLFEEYSRTGNEDNMRELADPNVRLKINGVDYVGWKHMTKLLNHWRVKTVNIRHVEIQGDYARSDVEEEVLINGKEDRRTSRLILFKVNGRWIIKSLEFD”, the protease stability score was 1.28.

On to “TEEERDVEKFIRDTLHYLHTGDEDAVAELMDPNVKFIIGDKHLHGMEALEYWSERFDHFHVRRLEIHHFEIINGRVHIELRIWVEVRYNGRIFELEFRSEYIMYKIDGKWVIKHVRHT”, for which the protease stability score is 1.56. “TEEEREFKEFVEHWMRAIETGDEELLYKLLDPNTQLNYNGVNNHGWHVIKHLEELLGIKVREMRIRDFHHIGDKIVLDVEDIIRIDGRTIILRTEILIVKVDGRWHLKSERVK” came in with a protease stability score of 0.965.

With “TEEERHIKEMLELFLEFFKTGNEDLFKELADPHVRLHLNINGKKERVHGMDHAVKWLSQLRVHSFHLKDERAVDGVNEVDQESDVEWNGQRFETTVRLHVYIVNGKLHHLSIEIK”, the protease stability score worked out at 1.19.

Sequence “TEEERIDHEYEERLKHSFETGDEETIKKMIDPNARVEIDGKDHHGREVMAHLISRIDVLHTVDTTDVSIQGDKINLNLRVHGHVNGKHIDRTLHVRIRKINGKWHIEHFKII” displayed a protease stability score of 1.04. The sequence “TEEERIMLEAIDLLIELWRTGDWKLLDEMVDPRVRIEIGEFTHHGREEYLRILLEEVRRADHRRYHIDHLEIINGRVILNGFIDLTFNGVHLRIREHLVAEKVNGRWLLREIRQR” gave a protease stability score of 1.72. In turn, “TEEERIRRHAVELWVRSMRTGDEETSVDLADPRTKADINGVEIHGMEIVSKFFREMLEQYDVREFHIHSIDVIGDKVVTDMELILRVGDFENRTHIEFIVHKFDGKWRIEEIRLH” gave a protease stability score of 0.934. “TEEERLHHELAKLMIHLMHTGDFDKLIKLVDPHAKLDEDVDGREVHVHGMEKWFEYLKEKFERIKNITIHIRDWRVYNGRVEIHVEYDINGKHVDTTIRLDVVNGRVKRIQIEQK”: the protease stability score was 2.16. Regarding “TEEERSTRIAWEIWEMVHKTGDERLIRRFADPNVRIQIGEYNHHGREELENHTKRIDHLHVQDSDVKRVHHFDGQVHIDVHEIIHLEFDGVREDIKRRAHFVVVKYDGRWYLHHVKFH”, the protease stability score amounted to 0.937. For “TEEESQAREALLIVLELLRTGDWRSMEKYADPHTLQVFNGRHLHGRELFSDFLEEYERKLGVDRIRVHIHHLDVINGQLRVDTTIDYGDKHHRMIIIINKYDGRWELEQLRIT” the value was 0.341; for “TEEETETRNLLELFIRSLHTGDEDLTKRLLDPNVRLELGEWEAHGRESVSEVLRLLWELLGVKHIEHHVHDMRVFNGRVHADTRVIMVFDGREHRIETELIVVKIDGRWFIKSIHIR”, 1.61. Sequence “TEEETRLREFMDRLLKIITTGDEKRFKDLADPHVRLFIDGVTIHGRDEAHEMWEIFGMKVKSTHVHEIHIQGDKVNIDTRLSGHFNGRDHIWEAHIYVVKIDGRWILEYIEIR” yielded a protease stability score of 1.94.

“TEEHDEAHEVLKIFLEIHETGDEDDMKRLADPHARLNIGDKEYHGWKHFIEWLHKIKNVTSEIHHVHVYNGKVKTEVDLHVNGQDVKIILIMEKINGRWILQSVEVR” gave a protease stability score of 1.29. Regarding “TEEHEDIMHFILEWTNSLLTGDFKRVKEMADPHVRVLIVIGDKELHLHGREWILKRTHDIVREMRVEIILHHVDSQGNFAHVDSTLRIEVDGVRFERKTRIHMDIVNGKLKSHEHRIE”, the protease stability score came to 1.29. To “TEEHEEARRAMKIIVDLLDTGDWKTISRYFDPNVRFEVGDKTYHGREEVLNRFIELGHSNIDVKLHHMELYGDKVVIDSRMNVDGRTHEIEWHSRKYNGRWRLHELHVR” belongs 1.12.

Turning to “TEEHEKSEIAVELIIRTLVTGDEELMNKLIDPHVRIEFENRELVGRETYTKIYSRELRELGWEFVTTELRHIETQGEKVELQGDLVINGKRIKVHLYFHKYNGVWFLKRVHYE”, the protease stability score worked out at 1.19. “TEEHELFEKLARLIIKWLHTGDEERINEYADPNYRTHIGDKTVIGREEREKLIRWLLEHMRIDHIELKDIRVINGKVEIDGKIHGQINGQEVTRHSIIYLIFVDGVIKHISIEWR” yielded a protease stability score of 1.35.
